In patent US20240140995A1:

Experiments:
[1] = target: T1, GthCol (Geobacillus thermoglucosidasius C-terminal Colicin DNase domain, C36A, H78A, engineered) (Geobacillus thermoglucosidasius); assay: SPR Biacore T200, 37 C, single cycle kinetics; settings: remark: other sources report otherwise
[2] = target: T1, GthCol (Geobacillus thermoglucosidasius …); assay: SPR Biacore T200, 37 C, single cycle kinetics; […]; settings: remark: other sources report otherwise

B1: E. coli IM-7, singly biotinylated, Q03708 1-87 (protein)
chain: MELKNSISDYTEAEFVQLLKEIEKENVAATDDVLDVLLEHFVKITEHPDGTDLIYYPSDNRDDSPEGIVKEIKEWRAANGKPGFKQG
How did the complex half-life t/2-diss [1] turn out when B1 was run?
Its complex half-life t/2-diss is 2.1 h.

And the Kd [2]?
Its Kd is 0.074 nM.

What about the MR (Molar Ratio, binding stoichiometry) [2] of the same binder?
Its MR (Molar Ratio, binding stoichiometry) is 1.1.

And the koff [2]?
The koff was 9.2e-05 s⁻¹.

What about the kon [2] of the same binder?
Its kon is 1.2e+06 M⁻¹ s⁻¹.
